For test [1], the target named is human FcγRI (human) (UniProt P12314). The test can be described thus: fluorescent staining of FcγRI transfectants, flow cytometry.
Test [2] shares this target. The test can be described thus: rosetting after centrifuging RBC coated with 1 µg/ml Fog-1 G1 together with B2KA cells.
The target is the same in test [3]. The test can be described thus: rosetting of FcγRI-bearing B2KA cells by R2R2 RBC coated with Ab; coating concentration.
Test [4] deals with FcγRIIa 131H/H (human) (UniProt P12318). In words: staining of 3T6+FcγRIIa 131H/H cells with complexed Ab (summary).
UniProt P12318, sequence (P12318 34-317): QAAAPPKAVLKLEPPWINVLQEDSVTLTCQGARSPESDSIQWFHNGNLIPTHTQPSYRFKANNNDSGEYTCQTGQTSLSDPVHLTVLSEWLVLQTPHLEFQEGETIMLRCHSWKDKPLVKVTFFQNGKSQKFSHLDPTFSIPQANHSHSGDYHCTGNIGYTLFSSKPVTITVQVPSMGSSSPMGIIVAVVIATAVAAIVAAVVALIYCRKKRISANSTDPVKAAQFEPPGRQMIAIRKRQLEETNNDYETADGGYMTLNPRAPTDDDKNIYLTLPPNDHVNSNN

UniProt P12314, sequence (P12314 16-374): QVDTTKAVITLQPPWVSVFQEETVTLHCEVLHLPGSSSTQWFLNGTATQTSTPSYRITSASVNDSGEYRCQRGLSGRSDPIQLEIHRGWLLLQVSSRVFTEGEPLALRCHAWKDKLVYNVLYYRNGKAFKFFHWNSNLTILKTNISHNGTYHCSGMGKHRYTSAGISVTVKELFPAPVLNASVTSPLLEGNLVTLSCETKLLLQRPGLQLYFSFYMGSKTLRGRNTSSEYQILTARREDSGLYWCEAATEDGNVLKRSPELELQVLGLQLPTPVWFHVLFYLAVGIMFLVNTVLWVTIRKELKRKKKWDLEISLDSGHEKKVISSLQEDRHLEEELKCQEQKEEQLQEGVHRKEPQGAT

On to CAMPATH-1 G1Δab (antibody), for which the fold reduction of binding against the parent subclass in test [1] was over 10000 fold.

On to CAMPATH-1 G1Δac (antibody), for which the fold reduction of binding against the parent subclass in test [1] was over 10000 fold.

For the substance CAMPATH-1 G1Δb (antibody), the fold reduction of binding against the parent subclass in test [1] was over 10000 fold.

As for CAMPATH-1 G1Δc (antibody), in test [1], the fold reduction of binding against the parent subclass is over 10000 fold.

For the substance CAMPATH-1 G4Δb (antibody), the fold reduction of binding against the parent subclass in test [1] was over 10000 fold.

As to CAMPATH-1 G4Δc (antibody), in test [1], the fold reduction of binding against the parent subclass was over 10000 fold.

As a reminder, the EC50 is the concentration that produces a half-maximal response. Read a low EC50 as greater potency. As to Fog-1 G1 (antibody), in test [2], the percent of B2KA cells with rosettes worked out at 95%. Besides, in test [3], the EC50 was 0.1 µg/mL.

Take Fog-1 G1Δa (antibody): in test [3], the EC50 is 0.1 µg/mL.

Fog-1 G1Δab (antibody): in test [1], the fold reduction of binding against the parent subclass was over 10000 fold.

As for Fog-1 G1Δac (antibody), the fold reduction of binding against the parent subclass in test [1] is over 10000 fold.

Substance Fog-1 G1Δb (antibody) returned a fold lower activity than IgG1 in test [4] of 50 fold. Besides, in test [1], the fold reduction of binding against the parent subclass is over 10000 fold.

Fog-1 G1Δc (antibody) registered a fold lower activity than IgG1 in test [4] of 10 fold. The fold reduction of binding against the parent subclass in test [1] was over 10000 fold.

Take Fog-1 G4Δb (antibody): the fold reduction of binding against the parent subclass in test [1] is over 10000 fold.

For the substance Fog-1 G4Δc (antibody), the fold reduction of binding against the parent subclass in test [1] was over 10000 fold.

The record behind these values is patent US7597889.
